According to the supplement of paper PMC12667976:

B1: library; numbered along this chain (parent)
chain: MATDAALRRLLRLHRTEIAVAVDSAFPLLHALADHDVVPEDKFQETLHLKEKEGCPQAFHALLSWLLTQDSTAILDFWRVLFKDYNLERYGRLQPILDSFPKDVDLSQPRKGRKPPAVPKALVPPPRLPTKRKASEEARAAAPAALTPRGTASPGSQLKAKPPKKPESSAEQQRLPLGNGIQTMSASVQRAVAMSSGDVPGARGAVEGILIQQVFESGGSKKCIQVGGEFYTPSKFEDSGSGKNKARSSSGPKPLVRAKGAQGAAPGGGEARLGQQGSVPAPLALPSDPQLHQKNEDECAVCRDGGELICCDGCPRAFHLACLSPPLREIPSGTWRCSSCLQATVQEVQPRAEEPRPQEPPVETPLPPGLRSAGEEVRGPPGEPLAGMDTTLVYKHLPAPPSAAPLPGLDSSALHPLLCVGPEGQQNLAPGARCGVCGDGTDVLRCTHCAAAFHWRCHFPAGTSRPGTGLRCRSCSGDVTPAPVEGVLAPSPARLAPGPAKDDTASHEPALHRDDLESLLSEHTFDGILQWAIQSMARPAAPFPS

Variants of: B1
Assay: AIRE transcriptional activation functional score (insulin promoter-GFP; nonsense median 0, synonymous median 1) (normalised score); higher = higher AIRE activity (more reporter activation)
Details: with insulin promoter-GFP reporter in HEK293
Method: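 Deep mutational scan of full-length human AIRE (codon-optimized cDNA, DT-POPCode NNN libraries over three regions) integrated at a Bxb1 landing pad in HEK293 cells carrying an insulin core promoter-GFP reporter at a Flp-In site. Cells were sorted for the top 10% GFP about 14 days after transfection. Variant frequency log-ratios (select vs non-select, TileSeq) were rescaled so that the nonsense median is 0 and the synonymous median is 1, then averaged over biological replicates.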

AIRE transcriptional activation functional score, by site and new letter:
P95: R 0.995; W 0.55; L 1.38; V 1.12; F 1.19; N 1.56; C 0.979; Y 1.97; S 0.715; H 0.425; G 1.01; M 1.41; K 0.336; T 1.34; Q 1.61; E 0.792; D 0.444; A 1.12; I 0.95
S99: C 1.07; Q -0.179; G 0.382; N 0.889; A -0.293; R 0.357; D 0.205; L 0.541; H 0.569; K 1.65; I 0.822; W -0.319; F 0.636; Y -0.311; V 0.813; M 1.07; P 1.51; E 0.0893
K102: D 0.758; F 1.34; Y 1.3; A -0.872; R 2.19; V 0.889; S 0.749; T 1.28; P -1.25; G 0.563; Q 2.65; M 0.607; I 1.56; E 1.25; N 1.44; H -1.63; L 0.643; W 1.77; C 0.948
E88: S 0.402; R 2.71; W 0.779; C 0.444; T 1.95; K 0.437; D 0.357; M 0.132; F 0.0961; Q 1.91; G -0.0199; V 0.181; A 1.18; I 0.434; L 0.861
D105: S -0.0361; A 1.52; T 0.553; Q -0.785; R 0.481; K 0.591; F 0.419; L 0.724; G 0.621; N 0.431; H 0.701; C 0.824; V 0.6; Y 1.72; E 0.837
R89: H 0.994; F 1.93; L -0.165; M -2.04; C 0.253; G 0.255; W 0.927; P -1.08; Q 0.475; S 1.8; V -3.54; A 0.812
L87: D 0.374; H -0.266; F -0.159; T 0.00113; S 0.0056; E 1.49; V 0.869; Y -0.162; G 0.476; W -0.816; Q 0.462; N 0.531; P 0.0832; I 1.66; R 1.14
Y90: S -0.169; P 0.0423; N 0.194; D 0.18; M 0.613; A 0.366; E -0.843; K -0.475; V 0.153; T 0.376; I -0.0337; Q -0.537; L 0.0613; R 0.13; F 0.00136; W -0.215; C 0.198; G -0.388; H 0.364
Q94: L 0.662; S 0.266; D 0.228; R 1.65; H 0.885; T 0.511; Y 0.209; C -0.262; F 0.133; M 1.89; G 0.865; I 1.17; W 1.53; V 1.42; N -0.193; A 1.44; P 0.0425; K 1.21; E 0.0511
D98: I 0.501; L 0.703; C 0.078; Q 2.07; A 0.771; Y 0.0432; G -0.489; H 1.3; E 0.0399; S 0.163; V 0.341; F 0.239; N 0.841; P 0.632; M 1.55; T -0.235; W -0.885; R 0.621; K -0.443
P101: F -0.111; I -0.0207; M 0.0755; G 0.302; S -0.303; Y 0.166; D 0.335; V -1.95; H 1.17; L 0.222; R 0.861; W -5.52; A 0.415; T -0.239; N 0.226
G91: P 0.488; W 1.54; Y 2.5; K -0.415; E 1.71; H -0.774; V 0.766; T 0.431; S 1.19; M 1.02; A 0.266; I -0.00302; L 0.236; D -0.369; R 1.22; F 0.132; C -0.103
L97: C 0.164; D 0.828; N -0.0633; S -0.186; M 0.762; Y 2.69; W -1.69; R 0.805; E -2.05; V 0.394; F 1.29; Q -0.412; A -0.272; T -0.118; I -0.239; G -0.102; H 2.81; P 0.384
L93: V 0.0157; D -0.0637; A 0.124; R 0.0258; E 0.401; I 0.258; S -0.0816; T -0.0548; M -0.0479; W 0.0522; N 0.43; F 0.229; Y -0.417; Q -0.189; K -0.329; G -0.0131; P 0.0133; H -0.023; C -0.0574
I96: V 1.14; D -0.0149; R 0.0358; C -0.194; T -1.01; Y 0.139; N 0.24; W -0.358; G -0.689; F 0.253; S -0.438; M -0.371; E 0.112; A -0.165; Q -1.73; L 0.547; P -0.0986; K 0.201; H 1.08
R92: W 0.13; P -0.2; G 0.724; V -0.0193; L -0.166; H 0.298; D 0.169; T -0.129; A -0.0922; S 0.275; Y -0.675; E -0.432; C 0.489; F 0.28; I -0.385; Q 0.461
D103: K 0.633; Y 0.675; N 0.59; L 0.32; V 0.319; I 0.368; M -0.761; C 1.14; A 0.291; T 0.146; Q 0.412; R 0.339; H 0.857; F 0.826; S 1.85; P -0.105; G 1.32; W 0.822; E 1.66
V104: F 1.15; Y 0.986; N -0.244; Q 1.13; G -0.0739; P 0.45; D -0.387; T 0.284; A -0.013; R 0.389; K -0.552; L 0.894; C 0.343; I 0.904; E 0.823; H -0.483; S -0.0986
F100: W 1.58; L 0.191; Q 1.26; A 0.229; V -0.124; M -0.57; H 0.644; C 0.447; P 1.03; G -0.223; K 0.809; I 0.0995; S 0.172; D -0.111; N 1.13; E -0.0797; R -0.588; T -2.46; Y -0.017
L106: D 0.107; F 0.883; E 0.17; C -0.159; A -0.169
